{"source": "patent US5234903A", "about": "“Chemically modified hemoglobin as an effective, stable non-immunogenic red blood cell substitute” (Enzon, Inc., priority 1990, dated 1993)", "key": {"[1]": {"assay": "Viscosity and colloid osmotic pressure of PEG-Hb solutions", "assay_type": "physicochemical", "source_text": "(§1) The polyalkylene oxide modified hemoglobin may then be chemically characterized using methods known in the art. For example, the oxygen dissociation curve may be determined using standard techniques (for example, Imai et al., 1970, Biochim. Biophys. Acta 200: 189-196) allowing calculation of the P50 value. Additional parameters which would be desirable to measure include the methemoglobin content, the viscosity, the osmolality, the pH, and the Hill constant; the effects of changes in pH on the oxygen saturation curve may be determined as described in Bartels (1971, Blood oxygen dissociation curves: Mammals. in \"Respiration and Circulation\", Altman and Dittmer, Eds., Federation of American Societies for Experimental Biology, Bethesda)."}, "[2]": {"assay": "Methemoglobin content of PEG-Hb preparations", "assay_type": "physicochemical", "settings": "in preparation", "source_text": "as §1"}, "[3]": {"assay": "Oxygen binding: P50 (partial pressure of oxygen at 50% saturation) and Hill coefficient", "settings": "Examples I-V and control", "experimental": "Hemoglobin constitutes about 90% of the total protein in red blood cells. 100 ml of whole blood is capable of absorbing approximately 21 ml of gaseous oxygen due to the binding ability of hemoglobin. Equally important to the binding of oxygen, hemoglobin is also efficient in releasing the bound oxygen to tissues. The ability of hemoglobin to bind and release oxygen is often quantitatively expressed as the P50, the partial pressure of oxygen which results in fifty percent saturation of hemoglobin.\nThe resulting modified hemoglobin may then be tested to determine its P50 value so as to confirm that a clinically useful P50 has been achieved. Methods of P50 measurement include standard methods of analysis, such as, for example, methods utilizing the Hemox-Analyzer (TCS Medical Products Co., Huntingdon Valley, Pa.).\nFollowing reduction, the hemoglobin may be reacted with an activated polyalkylene oxide under conditions which maintain the structural integrity of the oxygen binding site. In preferred embodiments of the invention, such conditions consist of a high anion concentration; in a specific embodiment this anion is chloride ion. In preferred embodiments, the chloride ion concentration is at least about 1.0M. […] According to the invention, the activated polyalkylene oxide may have one or more than one functional groups. The degree of modification for each preparation referred to in Table I is approximately 20 percent. This percent modification corresponds to about […] PEG molecules per each molecule of hemoglobin. The percent modification may be calculated according to the number of lysines modified by PEG and is based on a total of 48 surface lysines in bovine hemoglobin. The number may be determined by trinitrobenzene sulfonic acid (TNBS) assay (Habeef et al., 1966, Analyt. Biochem. 14:328-336).\nas §1\nPurification was carried out using a hollow-fiber ultrafiltration device with M.W. cutoff of 50 kD that is commercially available from American Fluid, Richboro, Pa. The advantage of this device relative to conventional tangential flat ultrafiltration membranes is its easy handling of viscous protein solutions such as the 6% PEG-Hb solution. Following purification, the P50 of the PEG-Hb was determined by a Hemox-Analyzer (TCS Medical Products Co., Huntington Valley, Pa.)."}, "[4]": {"assay": "Half-life and intravascular Met-Hb in rats after 70 percent exchange transfusion", "assay_type": "in vivo", "settings": "rats; for Half-life / Met-Hb at Half-life: 70% exchange transfusion", "source_text": "Blood circulating time of polyalkylene oxide-modified Hb may, for example, and not by way of limitation, be evaluated by monitoring the concentration of hemoglobin in the plasma fraction (at 540 nm) of blood samples sequentially collected following exchange transfusion with modified Hb. Hemoglobin disappearance may be plotted as a function of time."}, "[5]": {"assay": "Endotoxin (LAL test)"}, "[6]": {"assay": "Free iron by ferrozine assay", "assay_type": "physicochemical", "settings": "in preparation", "source_text": "The P50 of the above PEG-bHb was 29mm Hg (Table IV). […] Half-life of this example injected into rats after a 70 percent exchange transfusion was approximately nine hours (Table IV)."}, "[7]": {"tested_on": "rats", "assay": "Blood pressure, heart rate and breathing in rats after 70 percent exchange transfusion", "assay_type": "in vivo", "settings": "70% exchange transfusion", "source_text": "Acute toxicity studies may be performed in any suitable experimental animal. Preferably, a range of exposures may be tested; for example, by evaluating animals that have received a 50 or 70 percent exchange transfusion as compared to animals that have received a 100 percent exchange transfusion. Vital signs and visual observations should be recorded, and the animals may be sacrificed after a period of time estimated to correspond to one half-life of the hemoglobin formulation being tested. Histological evaluation using standard techniques may be used to determine the presence or absence of toxic effects on tissues including lung, kidney, liver, or brain.\nThe results of in vivo studies, in which rats were given a 70 percent exchange transfusion of hemoglobin prepared according to Examples I-V or control (native bovine hemoglobin) are shown in Table V (bracketed numbers are values obtained in rats that were not transfused). Note that the breathing rate decreased slightly, and the blood pressure increased by at most about 30-35 percent relative to control, showing a good physiologic response to the exchange transfusion."}, "[8]": {"settings": "in words; cited from earlier work"}, "[9]": {"settings": "in vivo; cited from earlier work"}}, "note": "Where “and” joins values, the source holds several entries; their conditions need not be identical. Equal entries are not always repeated. Where two headings read alike, the source gives them in different places.", "data": [{"substance": "CONTROL: control (native bovine hemoglobin) [reference compound]", "values": [{"measurement": "Osmotic Press.", "setting": "[1]", "value": 22, "unit": "mmHg"}, {"measurement": "Viscosity", "setting": "[1]", "value": 3.0, "unit": "cp"}, {"measurement": "MetHb", "setting": "[2]", "value": "< 5", "unit": "%"}, {"measurement": "Hill coeff.", "setting": "[3]", "value": 2.4}, {"measurement": "Half-life", "setting": "[4]", "value": 1.5, "unit": "h"}, {"measurement": "Met-Hb at Half-life", "setting": "[4]", "value": 16.5, "unit": "%"}, {"measurement": "Endotoxin", "setting": "[5]", "value": "< .1 EU"}, {"measurement": "Free Iron", "setting": "[6]", "value": 24, "unit": "µg/dL"}, {"measurement": "Breathing", "setting": "[7]", "value": 100, "unit": "min⁻¹"}, {"measurement": "Heart Rate", "setting": "[7]", "value": 304, "unit": "min⁻¹"}, {"measurement": "Mean Arterial Press.", "setting": "[7]", "value": 90, "unit": "mmHg"}]}, {"substance": "Example II: bovine hemoglobin deoxygenated through gas permeable membrane, conjugated to SC-PEG (5000)", "values": [{"measurement": "Osmotic Press.", "setting": "[1]", "value": 22, "unit": "mmHg"}, {"measurement": "Viscosity", "setting": "[1]", "value": 4.5, "unit": "cp"}, {"measurement": "MetHb", "setting": "[2]", "value": "< 5", "unit": "%"}, {"measurement": "Hill coeff.", "setting": "[3]", "value": 2.2}, {"measurement": "p50", "setting": "[3]", "value": 24, "unit": "mmHg"}, {"measurement": "Half-life", "setting": "[4]", "value": 9.6, "unit": "h"}, {"measurement": "Met-Hb at Half-life", "setting": "[4]", "value": 5.8, "unit": "%"}, {"measurement": "Endotoxin", "setting": "[5]", "value": "< .1 EU"}, {"measurement": "Free Iron", "setting": "[6]", "value": 27, "unit": "µg/dL"}, {"measurement": "Breathing", "setting": "[7]", "value": 104, "unit": "min⁻¹"}, {"measurement": "Heart Rate", "setting": "[7]", "value": 408, "unit": "min⁻¹"}, {"measurement": "Mean Arterial Press.", "setting": "[7]", "value": 119, "unit": "mmHg"}]}, {"substance": "Example III: bovine hemoglobin conjugated with SC-PEG (MW 3000) at a molar ratio of 30:1", "values": [{"measurement": "Osmotic Press.", "setting": "[1]", "value": 22, "unit": "mmHg"}, {"measurement": "Viscosity", "setting": "[1]", "value": 3.8, "unit": "cp"}, {"measurement": "MetHb", "setting": "[2]", "value": "< 5", "unit": "%"}, {"measurement": "Hill coeff.", "setting": "[3]", "value": 2.05}, {"measurement": "p50", "setting": "[3]", "value": 25, "unit": "mmHg"}, {"measurement": "Half-life", "setting": "[4]", "value": 12.4, "unit": "h"}, {"measurement": "Met-Hb at Half-life", "setting": "[4]", "value": 13.8, "unit": "%"}, {"measurement": "Endotoxin", "setting": "[5]", "value": "< .1 EU"}, {"measurement": "Free Iron", "setting": "[6]", "value": 20, "unit": "µg/dL"}, {"measurement": "Breathing", "setting": "[7]", "value": 79, "unit": "min⁻¹"}, {"measurement": "Heart Rate", "setting": "[7]", "value": 408, "unit": "min⁻¹"}, {"measurement": "Mean Arterial Press.", "setting": "[7]", "value": 132, "unit": "mmHg"}]}, {"substance": "Example IV: bovine hemoglobin modified with SC-PEG (MW 2000) at a molar ratio of 40:1", "values": [{"measurement": "Osmotic Press.", "setting": "[1]", "value": 22, "unit": "mmHg"}, {"measurement": "Viscosity", "setting": "[1]", "value": 3.2, "unit": "cp"}, {"measurement": "MetHb", "setting": "[2]", "value": "< 5", "unit": "%"}, {"measurement": "Hill coeff.", "setting": "[3]", "value": 1.8}, {"measurement": "p50", "setting": "[3]", "value": 20, "unit": "mmHg"}, {"measurement": "Half-life", "setting": "[4]", "value": 13.0, "unit": "h"}, {"measurement": "Met-Hb at Half-life", "setting": "[4]", "value": 18.0, "unit": "%"}, {"measurement": "Endotoxin", "setting": "[5]", "value": "< .1 EU"}, {"measurement": "Free Iron", "setting": "[6]", "value": 20, "unit": "µg/dL"}, {"measurement": "Breathing", "setting": "[7]", "value": 83, "unit": "min⁻¹"}, {"measurement": "Heart Rate", "setting": "[7]", "value": 432, "unit": "min⁻¹"}, {"measurement": "Mean Arterial Press.", "setting": "[7]", "value": 129, "unit": "mmHg"}]}, {"substance": "Example V: polymerized bovine hemoglobin modified first by BSC-PEG (MW 4600) 2:1, then SC-PEG (MW 5000) 10:1", "values": [{"measurement": "Osmotic Press.", "setting": "[1]", "value": 20, "unit": "mmHg"}, {"measurement": "Viscosity", "setting": "[1]", "value": 4.0, "unit": "cp"}, {"measurement": "colloid osmolality", "setting": "[1]", "value": 22, "unit": "mm Hg"}, {"measurement": "MetHb", "setting": "[2]", "value": 2, "unit": "%"}, {"measurement": "Hill coeff.", "setting": "[3]", "value": 2.2}, {"measurement": "Half-life", "setting": "[4]", "value": "19 h and 18.8 h"}, {"measurement": "Met-Hb at Half-life", "setting": "[4]", "value": 12.0, "unit": "%"}, {"measurement": "intravascular Met-bHb formation", "setting": "[4]; 70 percent exchange transfusion", "value": 12, "unit": "%"}, {"measurement": "Endotoxin", "setting": "[5]", "value": "< .1 EU"}, {"measurement": "endotoxins", "setting": "[5]; LAL test, in words", "value": "free of endotoxins"}, {"measurement": "Breathing", "setting": "[7]", "value": 90, "unit": "min⁻¹"}, {"measurement": "Heart Rate", "setting": "[7]", "value": 423, "unit": "min⁻¹"}, {"measurement": "Mean Arterial Press.", "setting": "[7]", "value": 97, "unit": "mmHg"}]}, {"substance": "Stroma-free hemoglobin: stroma-free hemoglobin, taken out of the red blood cell microenvironment", "values": [{"measurement": "P50 / oxygen binding of stroma-free hemoglobin", "setting": "[8]", "value": "bind oxygen too tightly (a low P50)"}, {"measurement": "transfusion half-life", "setting": "[9]", "value": "about 100 minutes"}]}, {"substance": "U.S. Pat. No. 4,529,719: stroma-free hemoglobin cross-linked with a bis-diaspirin ester, reacted with pyridoxal phosphate", "values": [{"measurement": "Half-life", "setting": "[9]", "value": "approximately 20 hours"}]}]}
